Here are results for two molecules from publication PMC5352318, “Carcinoma-risk variant of EBNA1 deregulates Epstein-Barr Virus episomal latency”.

Data set [1] concerns the target T1, B95-8 EBNA1 DBD (Epstein-Barr virus (strain B95-8)) (UniProt P03211).
T1 sequence: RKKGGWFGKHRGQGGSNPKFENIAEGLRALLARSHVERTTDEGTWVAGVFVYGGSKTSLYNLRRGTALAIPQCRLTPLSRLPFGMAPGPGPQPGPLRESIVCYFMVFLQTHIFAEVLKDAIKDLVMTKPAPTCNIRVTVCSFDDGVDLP
Description: SPR. The settings on record: SPR (Biacore T200, SA chip): 20 mM Tris pH 8.0, 250 mM NaCl, 5 mM beta-mercaptoethanol, 1 mM MgCl2, EBNA1 0-200 nM; temperature not stated. Crystals: 0.2 M …. For orientation: Surface plasmon resonance follows binding to a sensor surface in real time, without labels.

The next data set deals with B95-8 EBNA1 DBD (Epstein-Barr virus (strain B95-8), UniProt P03211 459-607). The data set can be described thus: SPR; 1 mM Mg2+; range given for both proteins, exact value in Fig 2B; SPR (Biacore T200, SA chip): 20 mM Tris pH 8.0, 250 mM NaCl, 5 mM beta-mercaptoethanol, 1 mM MgCl2, EBNA1 0-200 nM; temperature not stated. Crystals: 0.2 M ammonium acetate, 0.15 M Mg acetate, 0.05 M Hepes pH 7.0, 5% PEG 4000. Particulars: protein: recombinant; tags: His6-SUMO tag, cleaved; chain copies: 2; label: 5' biotin; self-complementary 18-mer.

In the case of “CGATAGCATATGCTTCCCGTTGGGTAACATATGCTATTG (double strand) [DS 3+4 (two EBNA1 dimer sites)]”, in data set [1], the dissociation constant (Kd) worked out at 11.9 nM.

B1: FR single EBNA1 dimer site (SPR) (dsDNA)
DNA 1: GGGAAGCATATGCTTCCC
DNA 2: GGGAAGCATATGCTTCCC
For the molecule B1, the dissociation constant Kd with B95-8 EBNA1 DBD is ~16.5 nM.

For orientation: Kd means the concentration at which binding is half-saturated.
